For experiment [1], the target named is SARS-CoV-2 spike S1 subunit, wild type, recombinant (SARS-CoV-2, WT (QHD43416, Wuhan-Hu-1), UniProt P0DTC2). Put plainly: BLI. Background: Biolayer interferometry detects binding as a change in optical thickness at a sensor tip.
Experiment [2] concerns the target SARS-CoV-2 spike receptor binding domain, wild type, recombinant (Severe acute respiratory syndrome …, UniProt P0DTC2). Put plainly: BLI.

B1: BL6 mAb (antibody, V domains shown)
VH: EVQLVESGGGLVQPGRSLRLSCEVSGFTFEDYDMQWVRQAPGKGLEWVSGISWNGGIIGYGDSVKGRFTISRDNAKNSLYLQMNSLRGEDTALYSCAKALHSGDDSGQQAFDIWGQGTMVTVSS
VL: SYVLTQPPSVSVAPGQTAKITCGENNIGRRSVHWYQQKPGQAPVLVIFNDSDRPSGIPERFSGSMSGNTATLTISRVEAGDEADYYCQVWDSGSDHVVFGGGTELTVL
For the molecule B1, the binding result in experiment [1] and in experiment [2] was “binds” in each case.

The record behind these values is PMC8379094 (Cell Reports, 2021).
